This is an account of results in patent publication US20230220071A1 (Hoffmann-La Roche, published 2023).

Test [1] has as its target T1, biotinylated human transferrin receptor (human, UniProt P02786 89-760, limits assumed, biotinylated (mono-biotinylated in Example 13)).
T1 construct: also called human transferrin receptor-biotinylated; mono-biotinylated human transferrin receptor
The test is described as follows: SPR BIAcore B4000, biotinylated TfR captured, 25 C. How it is done: (§1) A CAP sensor chip (provided in the Biotin CAPture Kit, series S #28-9202-34 GE) was mounted into a BIAcore B4000 system, normalized and addressed in a hydrodynamic manner, according to the manufacturer's instructions. In the first cycle the CAP reagent (as provided in the Kit) was addressed to spot 1, 2, 4 and 5 with a flow rate of 10 μL/min for 300 sec. The human transferrin receptor capture took place in spot 1 (human transferrin receptor-biotinylated) and spot 5 (cynomolgus transferrin receptor-biotinylated) with a flow rate of 10 μL/min and a contact time of 30 sec. The receptors were diluted to a concentration of 50 nM with running buffer (1×PBS #28995084, GE Healthcare, supplemented with 0.25 M NaCl). The antibodies were injected into all flow cells in a concentration series of 100 nM, 50 nM, 25 nM and 0 nM for 180 sec at a flow speed of 30 μL/min. Dissociation time was set to 300 sec. Regeneration of the whole complex from the CAP chip has been performed utilizing the regeneration solution provided in the Biotin CAPture Kit (120 sec with a flow rate of 10 μL/min). To control the active protein concentration a second cycle was performed in spot 5 utilizing biotinylated protein A (#P2165-2MG, Sigma) with a flow rate of 10 μL/min and a contact time of 30 sec. Spot 1 was kept empty in this control cycle. The antibodies and the regeneration were handled like in cycle 1. Relevant kinetic data was calculated using the BIAcore B4000 evaluation software. The dissociation from the human transferrin receptor has been determined applying the 1:1 dissociation fit.
Background: In SPR one partner is held on a chip, and binding of the other changes the refractive index at the surface.

The target in test [2] is T2, cynomolgus transferrin receptor on stably transfected CHO-K1 cells (cynomolgus).
T2 construct: whole, on cells; also called Cyno TfR-CHO; cyTfR
The test is described as follows: FACS, cyno TfR against human TfR. Background: In flow cytometry, cells or beads pass a laser one at a time.

For test [3], the target named is T3, biotinylated cynomolgus transferrin receptor (cynomolgus).
T3 chain: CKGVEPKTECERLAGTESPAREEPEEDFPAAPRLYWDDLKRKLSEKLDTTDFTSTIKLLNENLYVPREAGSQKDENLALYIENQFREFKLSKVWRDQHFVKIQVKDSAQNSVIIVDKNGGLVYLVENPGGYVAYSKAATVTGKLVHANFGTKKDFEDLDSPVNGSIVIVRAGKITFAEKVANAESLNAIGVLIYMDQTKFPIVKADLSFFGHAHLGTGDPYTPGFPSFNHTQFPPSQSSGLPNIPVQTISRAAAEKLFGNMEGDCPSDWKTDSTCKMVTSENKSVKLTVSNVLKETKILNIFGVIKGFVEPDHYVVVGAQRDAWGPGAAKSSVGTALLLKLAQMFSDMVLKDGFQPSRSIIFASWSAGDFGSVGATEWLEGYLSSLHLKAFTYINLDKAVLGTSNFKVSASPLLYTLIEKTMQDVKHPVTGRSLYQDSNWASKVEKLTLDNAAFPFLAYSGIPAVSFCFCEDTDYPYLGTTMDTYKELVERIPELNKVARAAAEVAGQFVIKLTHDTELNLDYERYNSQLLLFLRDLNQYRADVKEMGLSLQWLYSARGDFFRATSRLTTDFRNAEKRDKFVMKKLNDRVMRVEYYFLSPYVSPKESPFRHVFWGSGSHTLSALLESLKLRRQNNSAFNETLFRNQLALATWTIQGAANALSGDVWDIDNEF
The test is described as follows: SPR BIAcore T200, biotinylated TfR captured, 25 C. How it is done:
For all analysis the Biotin CAPture Kit from GE Healthcare (Instruction 28-9242-34 AB) was used. First the chip was rehydrated by docking it in the BIAcore T200 instrument. After that, the chip was left on standby with running buffer overnight. For surface preparation the Biotin CAPture Reagent was diluted 1:100 in running buffer (1×PBS, supplemented with 0.25 M NaCl). This solution was injected on Flow Cells 1 to 4 for 360 sec with a flow rate of 2 μL/min. Next the sensor surface was conditioned with three one-minute injections of regeneration solution provided in the Biotin CAPture Kit. This has to be done for the docking procedure or for the first time or after storage. A 100 nM human or cynomolgus, respectively, mono-biotinylated transferrin receptor solution should be injected on Flow Cell 2 for 30 sec at a flow rate of 10 μL/min. […] They were injected on the “hu-TfR-flow cell” (e.g. Flow Cell 2 as prepared as outlined above) with an injection time of 180 sec (association) and a flow rate of 10 μL/min. After dissociation phase of 600 sec the surface was regenerated according to the manufacturer's instructions with the regeneration solution provided in the Biotin CAPture Kit and the next cycle was carried out.
The kinetic data was evaluated using the BIAcore T200 evaluation software. Especially the dissociation rate constants of the different human transferrin receptor binders were taken into account after the application of the 1:1 Langmuir binding model.

Test [4] concerns the target T2, cynomolgus transferrin receptor on …. The test is described as follows: FACS on cyTfR CHO cells.
The target of test [5] is T4, human transferrin receptor on stably transfected CHO-K1 cells (human, UniProt P02786 1-760).
T4 construct: whole, on cells; also called hTfR-CHO; huTfR
The test is described as follows: FACS on hTfR-CHO cells.

The target of test [6] is T5, human transferrin receptor (BIAcore, construct not stated) (human, UniProt P02786 89-760).
T5 construct: also called huTfR
The test is described as follows: SPR (BIAcore), human TfR against cyno TfR.

For test [7], the target named is T3, biotinylated cynomolgus transferrin …. The test is described as follows: SPR BIAcore B4000, biotinylated TfR captured, 25 C. How it is done: as §1
Test [8] addresses T6, cynomolgus transferrin receptor (BIAcore, construct not stated) (cynomolgus, UniProt H9EXL1 89-760 (rhesus entry)).
T6 construct: also called cyTfR; Cyno TfR
The test is described as follows: SPR (BIAcore).

In test [9] the target is T5, human transferrin receptor (BIAcore, …). The test is described as follows: SPR (BIAcore).

T1 sequence (P02786 89-760 limits assumed): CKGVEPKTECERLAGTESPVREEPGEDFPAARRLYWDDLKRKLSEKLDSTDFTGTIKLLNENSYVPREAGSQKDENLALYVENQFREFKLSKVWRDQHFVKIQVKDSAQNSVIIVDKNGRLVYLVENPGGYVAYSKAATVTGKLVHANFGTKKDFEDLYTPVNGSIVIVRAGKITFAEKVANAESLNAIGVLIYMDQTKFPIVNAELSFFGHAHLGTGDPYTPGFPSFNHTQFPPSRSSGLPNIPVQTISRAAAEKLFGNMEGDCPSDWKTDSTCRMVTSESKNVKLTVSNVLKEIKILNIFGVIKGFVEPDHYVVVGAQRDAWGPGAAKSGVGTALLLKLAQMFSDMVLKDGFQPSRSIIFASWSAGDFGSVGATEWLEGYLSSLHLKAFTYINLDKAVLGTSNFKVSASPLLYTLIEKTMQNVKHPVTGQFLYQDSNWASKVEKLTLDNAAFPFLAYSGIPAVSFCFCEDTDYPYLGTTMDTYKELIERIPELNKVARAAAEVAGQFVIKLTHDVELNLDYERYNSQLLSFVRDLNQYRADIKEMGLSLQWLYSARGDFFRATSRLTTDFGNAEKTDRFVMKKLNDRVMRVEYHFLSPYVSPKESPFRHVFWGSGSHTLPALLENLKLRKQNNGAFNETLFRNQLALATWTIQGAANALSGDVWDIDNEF

B1: VH23-DANG / VK2-SYS (antibody, V domains shown)
VH: QSMQESGPGLVKPSQTLSLTCTVSGFSLSSYAMSWIRQHPGKGLEWIGYIWSGGSTDYASWAKSRVTISKTSTTVSLKLSSVTAADTAVYYCARRYGTSYPDYGDANGFDPWGQGTLVTVSS
VL: DIQMTQSPSSLSASVGDRVTITCRASQSISSYLNWYQQKPGKAPKLLIYRASTLASGVPSRFSGSGSGTDFTLTISSLQPEDFATYYCQQSYSSSNVDNTFGGGTKVEIK
By koff is commonly meant a measure of how fast the partners let go of each other. A high value points to fast dissociation. For B1, the off-rate (koff) in test [1] is 0.00522 s⁻¹.

B2: VH9-DANG / VK9-NYA (antibody, V domains shown)
VH: QQLLESGGGLVQPGGSLRLSCAASGFTFSSYAMSWVRQAPGKGLEWVGYIWSGGSTDYADSVKGRFTISRDNSKNTLYLQMNSLRAEDTAVYYCAKRYGTSYPDYGDANGFDPWGQGTLVTVSS
VL: AIQLTQSPSSLSASVGDRVTITCRASQSISSYLAWYQQKPGKAPKLLIYRASTLASGVPSRFSGSGSGTDFTLTISSLQPEDFATYYCQQNYASSNVDNTFGGGTKVEIK
B2 displayed a koff in [1] of 0.00182 s⁻¹.

B3: VH23-DANG / VK15-AYS (antibody, V domains shown)
VH: QSMQESGPGLVKPSQTLSLTCTVSGFSLSSYAMSWIRQHPGKGLEWIGYIWSGGSTDYASWAKSRVTISKTSTTVSLKLSSVTAADTAVYYCARRYGTSYPDYGDANGFDPWGQGTLVTVSS
VL: DIVMTQSPDSLAVSLGERATINCKSSQSISSYLIWYQQKPGQPPKLLIYRASTLASGVPDRFSGSGSGTDFTLTISSLQAEDVAVYYCQQAYSSSNVDNTFGGGTKVEIK
For B3, in test [1], the koff stood at 0.00697 s⁻¹.

B4: VH7-DANG / VK6-SYS (antibody, V domains shown)
VH: QQLVETGGGLIQPGGSLRLSCAASGFSLSSYAMSWVRQAPGKGLEWIGYIWSGGSTDYASWAKGRFTISRDNSKNTLYLQMNSLRAEDTAVYYCARRYGTSYPDYGDANGFDPWGQGTLVTVSS
VL: AIQLTQSPSSLSASVGDRVTITCRASQSISSYLSWYQQKPGKAPKLLIYRASTLASGVPSRFSGSGSGTDFTLTISSLQPEDFATYYCQQSYSSSNVDNTFGGGTKVEIK
In the case of B4, in [1], the koff was 0.0308 s⁻¹.

B5: VH23-DANG / VK17-TYS (antibody, V domains shown)
VH: QSMQESGPGLVKPSQTLSLTCTVSGFSLSSYAMSWIRQHPGKGLEWIGYIWSGGSTDYASWAKSRVTISKTSTTVSLKLSSVTAADTAVYYCARRYGTSYPDYGDANGFDPWGQGTLVTVSS
VL: AIQLTQSPSSLSASVGDRVTITCRASQSISSYLAWYQQKPGKAPKLLIYRASTLASGVPSRFSGSGSGTDFTLTISSLQPEDFATYYCQQTYSSSNVDNTFGGGTKVEIK
In [1], B5 showed a koff of 0.00229 s⁻¹.

B6: VH9-DANG / VK2-SYS (antibody, V domains shown)
VH: QQLLESGGGLVQPGGSLRLSCAASGFTFSSYAMSWVRQAPGKGLEWVGYIWSGGSTDYADSVKGRFTISRDNSKNTLYLQMNSLRAEDTAVYYCAKRYGTSYPDYGDANGFDPWGQGTLVTVSS
VL: DIQMTQSPSSLSASVGDRVTITCRASQSISSYLNWYQQKPGKAPKLLIYRASTLASGVPSRFSGSGSGTDFTLTISSLQPEDFATYYCQQSYSSSNVDNTFGGGTKVEIK
As for B6, in test [1], the koff turned out to be 0.0402 s⁻¹.

B7: VH23-DANG / VK6-SYS (antibody, V domains shown)
VH: QSMQESGPGLVKPSQTLSLTCTVSGFSLSSYAMSWIRQHPGKGLEWIGYIWSGGSTDYASWAKSRVTISKTSTTVSLKLSSVTAADTAVYYCARRYGTSYPDYGDANGFDPWGQGTLVTVSS
VL: AIQLTQSPSSLSASVGDRVTITCRASQSISSYLSWYQQKPGKAPKLLIYRASTLASGVPSRFSGSGSGTDFTLTISSLQPEDFATYYCQQSYSSSNVDNTFGGGTKVEIK
As to B7, the koff in test [1] is 0.0132 s⁻¹. This koff is about 3-fold lower than that of the molecule before.

B8: VH23-DANG / VK12-HYS (antibody, V domains shown)
VH: QSMQESGPGLVKPSQTLSLTCTVSGFSLSSYAMSWIRQHPGKGLEWIGYIWSGGSTDYASWAKSRVTISKTSTTVSLKLSSVTAADTAVYYCARRYGTSYPDYGDANGFDPWGQGTLVTVSS
VL: DIQMTQSPSSLSASVGDRVTITCRASQSISSYLAWYQQKPGKAPKLLIYRASTLASGVPSRFSGSRSGTDFTLTISSLQPEDFATYYCQQHYSSSNVDNTFGGGTKVEIK
Consider B8, for which, in test [1], the koff came to 0.0153 s⁻¹.

B9: murine anti-transferrin receptor antibody 128.1 (antibody, V domains shown)
VH: QVQLVQSGAEVKKPGASVKVSCKASGYTFTGYTMNWVRQAPGQGLEWMGRINPHNGGTDYAQKFQGRVTMTRDTSISTAYMELSRLRSDDTAVYYCARGYYYYSLDYWGQGTLVTVSS
VL: DIQMTQSPSSLSASVGDRVTITCRASSSIRYIHWYQQKPGKAPKRLIYDTSNLASGVPSRFSGSGSGTEFTLTISSLQPEDFATYYCHQRNSYPWTFGQGTRLEIK
notes: Mouse anti-human TfR antibody
Broadly, the Kd is the concentration at which binding is half-saturated. Higher therefore signals weaker binding. What is called kon is the second-order rate constant of association. Higher therefore signals faster complex formation. A word on the EC50: it is the concentration at which the effect is half-maximal. Low readings indicate a more potent agent, high ones a less potent agent. For B9, the “ratio EC50 Cyno/human” value in [2] came to 3.3. The “ratio max Cyno/human” value in test [2] was determined as 0.6. Besides, the Kd in test [3] is 136 nM. Also, the koff in test [3] was 0.0733 s⁻¹; in [7], 0.0778 s⁻¹; in [8], 0.0547 s⁻¹; in [9], 0.000606 s⁻¹. In test [3], this molecule displayed a kon of 541000 M⁻¹ s⁻¹. Besides, the EC50 in [4] was determined as 0.314 µg/mL; in [5] it was 0.096 µg/mL. Also, in test [6], the “ratio t1/2 human/Cyno” value stood at 90.2.
